{"source": "patent US9347942B2", "about": "“Ultrasensitive cell based sensors and uses thereof” (CANVAX BIOTECH SL, priority 2010, dated 2016)", "type_in_all_cases": "cell-based", "key": {"[1]": {"biological_target": "T1, SSTR2 (Homo sapiens, UniProt P30874)", "T1 construct": "the entire human GPCR; mouse immunoglobulin kappa signal peptide (N); expressed in transfected cells", "T1 sequence (P30874 2-369)": "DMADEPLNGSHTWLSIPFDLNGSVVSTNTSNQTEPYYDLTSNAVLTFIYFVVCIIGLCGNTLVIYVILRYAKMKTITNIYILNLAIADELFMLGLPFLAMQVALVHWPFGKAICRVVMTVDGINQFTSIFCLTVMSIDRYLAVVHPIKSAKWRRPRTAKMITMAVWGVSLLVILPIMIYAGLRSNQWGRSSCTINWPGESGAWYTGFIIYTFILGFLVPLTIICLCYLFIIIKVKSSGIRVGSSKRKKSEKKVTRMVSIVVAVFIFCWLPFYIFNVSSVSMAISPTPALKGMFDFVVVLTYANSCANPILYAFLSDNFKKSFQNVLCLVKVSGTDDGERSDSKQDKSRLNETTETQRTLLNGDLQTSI", "assay": "Agonist-induced exocytosis of granzyme B, sandwich ELISA (Example 9)", "conditions": "agonist 10 uM, 60 minutes", "source_text": "(§1) Human granzyme B was selected as reporter, chimeric promoter of hCMV-MoLV5′LTR as promoter for reporter expression, RBL-2H3 as hemopoyetic cells with professional regulated exocytosis and several GPCRs as exocytosis modulators under the control of Moloney Leukaemia virus 5′-LTR (MoMLV5′LTR, SEQ ID NO:3) as promoter for expression of exocytosis modulators. […] Vectors for expression of granzyme B had the chimeric promoter of hCMV-MoLV5′LTR-GranzymeB-IRES-NGFR with hygromycin resistance for stable transfections. Vectors for GPCR were electroporated first, cells were selected with neomycin at 500 ug/mL for about two weeks and cells were analysed by flow cytometry (Guava Technologies, USA) with anti-cmyc tag antibody (anti-cmyc-FITC, clone 9E10, Sigma-Aldrich, USA) for surface expression. Positive cells were separated by magnetic separation using anti-cmyc monoclonal antibody conjugated to biotin (Miltenyi Biotec, Germany) and streptavidin-MACS (Miltenyi Biotec, Germany). After growing positive fraction of cells was again analysed by flow cytometry with the anti-cmyc tag antibody. Positive cells were individually electroporated with the vector for expression human granzyme B using a microporator (Digital Bio Technology, South Korea) and after 48 hours hygromycin at 1500 ug/mL and neomycin at 500 ug/mL were added to culture for selection. After selection for about 2 weeks cells were analysed by flow cytometry (Guava Technologies, USA) with an antibody against NGFR coupled to FITC. Positive population where magnetically separated by MACS using anti-NGFR-MACS sup.R (Miltenyi Biotec, Germany). Sorted populations were again analysed again by flow cytometry to check both the expression of the GPCR with the anti-cmyc tag antibody and with anti-NGFR antibody to check granzyme B expression. […] GPCRs included were: SSTR2 and CHRM2 as alpha-i coupled GPCRs; AGTR1 and bradykinin type B1 receptor (BDKRB1) as alpha-q coupled GPCRs and AVPR2 as alpha-s coupled GPCR. […] Cells were seeded the night before experiment at 100.000 cells per well of a 96-well microplate in 100 uL of complete cell culture medium. Next day cells were washed with HBSS buffer and incubated with the ligand (agonist) at 10 uM of each GPCR in 30 uL of HBSS buffer at 37 Celsius degrees for 60 minutes and after centrifugation at 400 g for 5 minutes supernatants were analysed for human granzyme B protein by a sandwich ELISA specific for human granzyme B (Ucytech, Netherlands)."}, "[2]": {"biological_target": "T2, AGTR1 (Homo sapiens, UniProt P30556)", "T2 construct": "the entire human GPCR; mouse immunoglobulin kappa signal peptide (N); expressed in transfected cells", "T2 sequence (P30556 2-359)": "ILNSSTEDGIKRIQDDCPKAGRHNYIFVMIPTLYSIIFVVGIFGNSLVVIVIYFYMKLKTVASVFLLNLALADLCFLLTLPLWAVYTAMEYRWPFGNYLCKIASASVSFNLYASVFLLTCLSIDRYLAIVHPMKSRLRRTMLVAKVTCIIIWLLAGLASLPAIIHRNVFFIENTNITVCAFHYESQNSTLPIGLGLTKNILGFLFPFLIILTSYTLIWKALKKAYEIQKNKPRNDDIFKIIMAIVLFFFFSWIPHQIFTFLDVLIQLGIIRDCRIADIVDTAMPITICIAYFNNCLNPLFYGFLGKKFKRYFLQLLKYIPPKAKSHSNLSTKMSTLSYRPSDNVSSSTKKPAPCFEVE", "assay": "Agonist-induced exocytosis of granzyme B, sandwich ELISA (Example 9)", "conditions": "agonist 10 uM, 60 minutes", "source_text": "as §1"}, "[3]": {"biological_target": "T3, bradykinin type B1 receptor (BDKRB1) (Homo sapiens, UniProt P46663)", "T3 construct": "the entire human GPCR; mouse immunoglobulin kappa signal peptide (N); expressed in transfected cells", "T3 sequence (P46663 5-353 limits assumed)": "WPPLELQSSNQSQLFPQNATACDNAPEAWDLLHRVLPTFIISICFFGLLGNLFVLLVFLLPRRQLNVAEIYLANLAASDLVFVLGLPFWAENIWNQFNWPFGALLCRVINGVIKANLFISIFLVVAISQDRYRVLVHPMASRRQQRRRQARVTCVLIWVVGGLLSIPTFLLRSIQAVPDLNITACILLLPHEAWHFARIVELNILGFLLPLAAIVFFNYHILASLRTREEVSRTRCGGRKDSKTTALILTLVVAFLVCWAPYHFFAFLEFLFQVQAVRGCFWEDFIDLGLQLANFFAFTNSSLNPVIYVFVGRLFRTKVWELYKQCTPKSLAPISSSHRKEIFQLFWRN", "assay": "Agonist-induced exocytosis of granzyme B, sandwich ELISA (Example 9)", "conditions": "agonist 10 uM, 60 minutes", "source_text": "as §1"}, "[4]": {"biological_target": "T4, bradykinin type B1 receptor (Homo sapiens, UniProt P46663)", "T4 construct": "the entire human GPCR; mouse immunoglobulin kappa signal peptide (N); expressed in transfected cells", "T4 sequence (P46663 5-353 limits assumed)": "T3 sequence (P46663 5-353 limits assumed)", "assay": "Exocytosis time optimisation, granzyme B FRET readout (Example 12)", "conditions": "agonist 10 uM", "source_text": "An experiment was designed to optimize assay conditions such as: exocytosis time, number of steps needed for assay and uses of cells in suspension. Cells developed in example #9 expressing both a GPCR and human granzyme B were used in this example for optimization of exocytosis time. GPCRs included were CHRM2 (an alpha-i coupled GPCR) and bradykinin type B1 receptor (an alpha-q coupled GPCR). Carbachol and kallinin from Sigma-Aldrich (USA) were used as ligands for CHRM2 and bradykinin type B1 receptor, respectively and used at 10 uM final concentration in HBSS buffer. Cells were seeded the night before experiment at 20.000 cells per well of a 96-well microplate in 100 uL of complete cell culture medium. Next day cells were washed with HBSS buffer and incubated with the ligand (agonist) at 10 uM of each GPCR in 30 uL of HBSS buffer at 37 Celsius degrees for 5, 15, 30 or 60 minutes and after centrifugation at 400 g for 5 minutes supernatants were analysed for human granzyme B activity using FAM-[…]-TAMRA at 1 uM final concentration as the human granzyme B substrate. Released FAM was measured by excitation at 485 nm and emission at 535 nm in a BMG Labtech microplate fluorimeter in 96 well microplates. Microplates were incubated at 37 Celsius degrees on the reader and were kinetically read at 0, 15, 30, 45 and 60 minutes. Control wells with substrate only in HBSS buffer were included to subtract autofluorescence of substrates to both cells treated with ligands and to cells treated with HBSS buffer only. […] The signal to background is lower at longer exocytosis times due to the higher increase in basal release than the increase in specific signal after the first 5 to 15 minutes. Thus, any exocytosis time from probably less than 5 minutes to at least 60 minutes may be used for the methods of the present invention but longer exocytosis times produce a sensor with a lower signal to background, exocytosis is nearly complete at 5 minutes and signal to background is good for a robust sensor."}, "[5]": {"conditions": "100.000 cells, dilution 2250, after subtraction of 0.2 blank"}}, "data": [{"molecule": "CC(C)[C@@H]1NC(=O)[C@H](CCCCN)NC(=O)[C@@H](Cc2c[nH]c3ccccc23)NC(=O)[C@H](Cc2ccc(O)cc2)NC(=O)[C@H](C)N(C)C(=O)[C@H](Cc2ccccc2)NC1=O", "note": "[Seglitide, seglitide]", "values": [{"measurement": "Absorbance at maximal dilution of ELISA tested", "setting": "[1]; [5]", "result": 2.4}, {"measurement": "Sensitivity (minimal amount of cells needed)", "setting": "[1]; granzyme B ELISA", "result": "<150", "unit": "cells"}]}, {"molecule": "angiotensin", "values": [{"measurement": "Absorbance at maximal dilution of ELISA tested", "setting": "[2]; [5]", "result": 1.8}, {"measurement": "Sensitivity (minimal amount of cells needed)", "setting": "[2]; granzyme B ELISA", "result": "<150", "unit": "cells"}]}, {"molecule": "kallinin", "values": [{"measurement": "Absorbance at maximal dilution of ELISA tested", "setting": "[3]; [5]", "result": 0.8}, {"measurement": "Sensitivity (minimal amount of cells needed)", "setting": "[3]; granzyme B ELISA", "result": "<150", "unit": "cells"}, {"measurement": "exocytosis, % of maximal", "setting": "[4]; 5 minutes, 20.000 cells", "result": "> 90", "unit": "%"}, {"measurement": "signal to background (S/B)", "setting": "[4]; medium taken at 5 to 15 minutes", "result": "20-22"}, {"measurement": "signal to background (S/B)", "setting": "[4]; medium taken at 30 minutes", "result": "15-17"}, {"measurement": "signal to background (S/B)", "setting": "[4]; medium taken at 60 minutes", "result": "8-10"}]}]}
